Biological target: trastuzumab
Assay: SEC + native MS

## trastuzumab (antibody)
  stoichiometry N: 2

Source: PMC9893218
